Results taken from US20140087995A1 (published 2014).
Numbering of substitutions follows the chain as printed. Numbered stars: 1 amine (or outer) side, 2 acyl side, 3 side chain; on linkers, the order of the positions; unused ones are H or OH. Bridge positions count the residues as written; N and C are the ends. Side chains are listed from the residue outwards. Ends that are not written are not given here. * marks the point of attachment. C20 diacid = O=C(O)CCCCCCCCCCCCCCCCCCC(=O)*; γGlu = O=C(O)[C@H](CCC(=O)[*:2])N[*:1]; AEEA = NCCOCCOCC(=O)O

T1: human calcitonin receptor (human, UniProt P30988 25-474)
T1 construct: whole, on cells; Used as cell membranes prepared from the transfected BHK cells (Assay VII), not as intact cells; also called hCTR; hCT
T1 sequence (looked up): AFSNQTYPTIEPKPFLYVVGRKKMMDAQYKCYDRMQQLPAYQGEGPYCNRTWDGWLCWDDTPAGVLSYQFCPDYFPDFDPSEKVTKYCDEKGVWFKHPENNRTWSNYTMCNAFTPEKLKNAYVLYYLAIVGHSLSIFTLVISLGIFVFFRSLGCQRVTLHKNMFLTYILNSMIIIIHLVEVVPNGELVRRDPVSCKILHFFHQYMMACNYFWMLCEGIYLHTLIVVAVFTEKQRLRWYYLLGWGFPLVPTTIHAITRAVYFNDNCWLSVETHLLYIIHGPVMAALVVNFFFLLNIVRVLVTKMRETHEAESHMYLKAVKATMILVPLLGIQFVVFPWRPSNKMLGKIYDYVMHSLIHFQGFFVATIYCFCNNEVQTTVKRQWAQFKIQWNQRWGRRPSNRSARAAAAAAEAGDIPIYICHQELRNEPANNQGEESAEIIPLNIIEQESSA

T2: human calcitonin receptor (human, UniProt P30988 25-474)
T2 construct: whole, on cells; also called hCTR; hCT
T2 sequence (looked up): T1 sequence (looked up)

B1: N^ε1-[(4S)-4-carboxy-4-(19-carboxynonadecanoylamino)butanoyl]-[Arg17,Pro21,Pro27]-h-amylin (peptide)
peptide: K([γGlu-C20 diacid])CNTATCATQRLANFLRHSSPNFGAIPSSTNVGSNTY-NH2
modifications: disulfide 2-7; N-terminus assumed
SMILES: CC[C@H](C)[C@H](NC(=O)[C@H](C)NC(=O)CNC(=O)[C@H](Cc1ccccc1)NC(=O)[C@H](CC(N)=O)NC(=O)[C@@H]1CCCN1C(=O)[C@H](CO)NC(=O)[C@H](CO)NC(=O)[C@H](Cc1c[nH]cn1)NC(=O)[C@H](CCCNC(=N)N)NC(=O)[C@H](CC(C)C)NC(=O)[C@H](Cc1ccccc1)NC(=O)[C@H](CC(N)=O)NC(=O)[C@H](C)NC(=O)[C@H](CC(C)C)NC(=O)[C@H](CCCNC(=N)N)NC(=O)[C@H](CCC(N)=O)NC(=O)[C@@H](NC(=O)[C@H](C)NC(=O)[C@@H]1CSSC[C@H](NC(=O)[C@@H](N)CCCCNC(=O)CC[C@H](NC(=O)CCCCCCCCCCCCCCCCCCC(=O)O)C(=O)O)C(=O)N[C@@H](CC(N)=O)C(=O)N[C@@H]([C@@H](C)O)C(=O)N[C@@H](C)C(=O)N[C@@H]([C@@H](C)O)C(=O)N1)[C@@H](C)O)C(=O)N1CCC[C@H]1C(=O)N[C@@H](CO)C(=O)N[C@@H](CO)C(=O)N[C@H](C(=O)N[C@@H](CC(N)=O)C(=O)N[C@H](C(=O)NCC(=O)N[C@@H](CO)C(=O)N[C@@H](CC(N)=O)C(=O)N[C@H](C(=O)N[C@@H](Cc1ccc(O)cc1)C(N)=O)[C@@H](C)O)C(C)C)[C@@H](C)O
notes: also called compound 48
B2: N^α1 N^α1-[(4S)-4-carboxy-4-[[(4S)-4-carboxy-4-(19-carboxynonadecanoylamino)butanoyl]amino]butanoyl]-[Glu14,Arg17,Pro21,Pro27]-h-amylin (peptide)
peptide: {C20 diacid-γGlu-γGlu}-KCNTATCATQRLAEFLRHSSPNFGAIPSSTNVGSNTY-NH2
modifications: disulfide 2-7
SMILES: CC[C@H](C)[C@H](NC(=O)[C@H](C)NC(=O)CNC(=O)[C@H](Cc1ccccc1)NC(=O)[C@H](CC(N)=O)NC(=O)[C@@H]1CCCN1C(=O)[C@H](CO)NC(=O)[C@H](CO)NC(=O)[C@H](Cc1c[nH]cn1)NC(=O)[C@H](CCCNC(=N)N)NC(=O)[C@H](CC(C)C)NC(=O)[C@H](Cc1ccccc1)NC(=O)[C@H](CCC(=O)O)NC(=O)[C@H](C)NC(=O)[C@H](CC(C)C)NC(=O)[C@H](CCCNC(=N)N)NC(=O)[C@H](CCC(N)=O)NC(=O)[C@@H](NC(=O)[C@H](C)NC(=O)[C@@H]1CSSC[C@H](NC(=O)[C@H](CCCCN)NC(=O)CC[C@H](NC(=O)CC[C@H](NC(=O)CCCCCCCCCCCCCCCCCCC(=O)O)C(=O)O)C(=O)O)C(=O)N[C@@H](CC(N)=O)C(=O)N[C@@H]([C@@H](C)O)C(=O)N[C@@H](C)C(=O)N[C@@H]([C@@H](C)O)C(=O)N1)[C@@H](C)O)C(=O)N1CCC[C@H]1C(=O)N[C@@H](CO)C(=O)N[C@@H](CO)C(=O)N[C@H](C(=O)N[C@@H](CC(N)=O)C(=O)N[C@H](C(=O)NCC(=O)N[C@@H](CO)C(=O)N[C@@H](CC(N)=O)C(=O)N[C@H](C(=O)N[C@@H](Cc1ccc(O)cc1)C(N)=O)[C@@H](C)O)C(C)C)[C@@H](C)O
notes: also called compound 15
B3: N^α1-[2-[2-[2-[[2-[2-[2-[[(4S)-4-carboxy-4-(19-carboxynonadecanoylamino)butanoyl]amino]ethoxy]ethoxy]acetyl]amino]ethoxy]ethoxy]acetyl]-[Glu14,Arg17,Pro21,Pro27 … (peptide)
peptide: KCNTATCATQRLAEFLRHSSPNFGAIPSSTNVGSNTY
modifications: C20 diacid-gGlu-2xOEG on alpha amino group of N-terminal Lys 1; disulfide Cys2-Cys7; C-terminal amide (as human amylin)
notes: also called compound 19
B4: N^α1-[(4S)-4-carboxy-4-(19-carboxynonadecanoylamino)butanoyl]-[Arg17,Pro21,Pro27,Arg34]-h-amylin (peptide)
peptide: B3 peptide with E14N, S34R
modifications: C20 diacid-gGlu on alpha amino group of N-terminal Lys 1; disulfide Cys2-Cys7; C-terminal amide (as human amylin)
notes: also called compound 39
B5: N^α1-[(4S)-4-carboxy-4-(19-carboxynonadecanoylamino)butanoyl]-[Arg17,Pro21,Pro27,Glu35]-h-amylin (peptide)
peptide: B3 peptide with E14N, N35E
modifications: C20 diacid-gGlu on alpha amino group of N-terminal Lys 1; disulfide Cys2-Cys7; C-terminal amide (as human amylin)
notes: also called compound 23
B6: N^α1-[(4S)-4-carboxy-4-(19-carboxynonadecanoylamino)butanoyl]-[Arg17,Pro21,Pro27,His34]-h-amylin (peptide)
peptide: B3 peptide with E14N, S34H
modifications: C20 diacid-gGlu on alpha amino group of N-terminal Lys 1; disulfide Cys2-Cys7; C-terminal amide (as human amylin)
notes: also called compound 40
B7: N^α1-[(4S)-4-carboxy-4-(19-carboxynonadecanoylamino)butanoyl]-[Arg17,Pro21,Pro27,Lys35]-h-amylin (peptide)
peptide: B3 peptide with E14N, N35K
modifications: C20 diacid-gGlu on alpha amino group of N-terminal Lys 1; disulfide Cys2-Cys7; C-terminal amide (as human amylin)
notes: also called compound 34
B8: N^α1-[(4S)-4-carboxy-4-(19-carboxynonadecanoylamino)butanoyl]-[Arg17,Pro21,Pro27,Pro31,Glu35]-h-amylin (peptide)
peptide: {C20 diacid-γGlu}-KCNTATCATQRLANFLRHSSPNFGAIPSSTPVGSETY-NH2
modifications: disulfide 2-7
SMILES: CC[C@H](C)[C@H](NC(=O)[C@H](C)NC(=O)CNC(=O)[C@H](Cc1ccccc1)NC(=O)[C@H](CC(N)=O)NC(=O)[C@@H]1CCCN1C(=O)[C@H](CO)NC(=O)[C@H](CO)NC(=O)[C@H](Cc1c[nH]cn1)NC(=O)[C@H](CCCNC(=N)N)NC(=O)[C@H](CC(C)C)NC(=O)[C@H](Cc1ccccc1)NC(=O)[C@H](CC(N)=O)NC(=O)[C@H](C)NC(=O)[C@H](CC(C)C)NC(=O)[C@H](CCCNC(=N)N)NC(=O)[C@H](CCC(N)=O)NC(=O)[C@@H](NC(=O)[C@H](C)NC(=O)[C@@H]1CSSC[C@H](NC(=O)[C@H](CCCCN)NC(=O)CC[C@H](NC(=O)CCCCCCCCCCCCCCCCCCC(=O)O)C(=O)O)C(=O)N[C@@H](CC(N)=O)C(=O)N[C@@H]([C@@H](C)O)C(=O)N[C@@H](C)C(=O)N[C@@H]([C@@H](C)O)C(=O)N1)[C@@H](C)O)C(=O)N1CCC[C@H]1C(=O)N[C@@H](CO)C(=O)N[C@@H](CO)C(=O)N[C@H](C(=O)N1CCC[C@H]1C(=O)N[C@H](C(=O)NCC(=O)N[C@@H](CO)C(=O)N[C@@H](CCC(=O)O)C(=O)N[C@H](C(=O)N[C@@H](Cc1ccc(O)cc1)C(N)=O)[C@@H](C)O)C(C)C)[C@@H](C)O
notes: also called compound 28
B9: N^α1-[(4S)-4-carboxy-4-(19-carboxynonadecanoylamino)butanoyl]-[His14,Arg17,Pro21,Pro27,Glu35]-h-amylin (peptide)
peptide: {C20 diacid-γGlu}-KCNTATCATQRLAHFLRHSSPNFGAIPSSTNVGSETY-NH2
modifications: disulfide 2-7
SMILES: CC[C@H](C)[C@H](NC(=O)[C@H](C)NC(=O)CNC(=O)[C@H](Cc1ccccc1)NC(=O)[C@H](CC(N)=O)NC(=O)[C@@H]1CCCN1C(=O)[C@H](CO)NC(=O)[C@H](CO)NC(=O)[C@H](Cc1c[nH]cn1)NC(=O)[C@H](CCCNC(=N)N)NC(=O)[C@H](CC(C)C)NC(=O)[C@H](Cc1ccccc1)NC(=O)[C@H](Cc1c[nH]cn1)NC(=O)[C@H](C)NC(=O)[C@H](CC(C)C)NC(=O)[C@H](CCCNC(=N)N)NC(=O)[C@H](CCC(N)=O)NC(=O)[C@@H](NC(=O)[C@H](C)NC(=O)[C@@H]1CSSC[C@H](NC(=O)[C@H](CCCCN)NC(=O)CC[C@H](NC(=O)CCCCCCCCCCCCCCCCCCC(=O)O)C(=O)O)C(=O)N[C@@H](CC(N)=O)C(=O)N[C@@H]([C@@H](C)O)C(=O)N[C@@H](C)C(=O)N[C@@H]([C@@H](C)O)C(=O)N1)[C@@H](C)O)C(=O)N1CCC[C@H]1C(=O)N[C@@H](CO)C(=O)N[C@@H](CO)C(=O)N[C@H](C(=O)N[C@@H](CC(N)=O)C(=O)N[C@H](C(=O)NCC(=O)N[C@@H](CO)C(=O)N[C@@H](CCC(=O)O)C(=O)N[C@H](C(=O)N[C@@H](Cc1ccc(O)cc1)C(N)=O)[C@@H](C)O)C(C)C)[C@@H](C)O
notes: also called compound 30
B10: N^ε1-[2-[2-[2-[[2-[2-[2-[[(4S)-4-carboxy-4-(19-carboxynonadecanoylamino)butanoyl]amino]ethoxy]ethoxy]acetyl]amino]ethoxy]ethoxy]acetyl]-[Arg17,Pro21,Pro27,Glu35 … (peptide)
peptide: K([AEEA-AEEA-γGlu-C20 diacid])CNTATCATQRLANFLRHSSPNFGAIPSSTNVGSETY-NH2
modifications: disulfide 2-7; N-terminus assumed
SMILES: CC[C@H](C)[C@H](NC(=O)[C@H](C)NC(=O)CNC(=O)[C@H](Cc1ccccc1)NC(=O)[C@H](CC(N)=O)NC(=O)[C@@H]1CCCN1C(=O)[C@H](CO)NC(=O)[C@H](CO)NC(=O)[C@H](Cc1c[nH]cn1)NC(=O)[C@H](CCCNC(=N)N)NC(=O)[C@H](CC(C)C)NC(=O)[C@H](Cc1ccccc1)NC(=O)[C@H](CC(N)=O)NC(=O)[C@H](C)NC(=O)[C@H](CC(C)C)NC(=O)[C@H](CCCNC(=N)N)NC(=O)[C@H](CCC(N)=O)NC(=O)[C@@H](NC(=O)[C@H](C)NC(=O)[C@@H]1CSSC[C@H](NC(=O)[C@@H](N)CCCCNC(=O)COCCOCCNC(=O)COCCOCCNC(=O)CC[C@H](NC(=O)CCCCCCCCCCCCCCCCCCC(=O)O)C(=O)O)C(=O)N[C@@H](CC(N)=O)C(=O)N[C@@H]([C@@H](C)O)C(=O)N[C@@H](C)C(=O)N[C@@H]([C@@H](C)O)C(=O)N1)[C@@H](C)O)C(=O)N1CCC[C@H]1C(=O)N[C@@H](CO)C(=O)N[C@@H](CO)C(=O)N[C@H](C(=O)N[C@@H](CC(N)=O)C(=O)N[C@H](C(=O)NCC(=O)N[C@@H](CO)C(=O)N[C@@H](CCC(=O)O)C(=O)N[C@H](C(=O)N[C@@H](Cc1ccc(O)cc1)C(N)=O)[C@@H](C)O)C(C)C)[C@@H](C)O
notes: also called compound 25

What follows are binders tested against T1, human calcitonin receptor (assay: SPA competition against 125I-calcitonin, membranes with human calcitonin receptor (Assay VII)).
Summary of the method: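 BHK hCTR membranes 35 ng/μL + SPA beads 0.05 mg/well; buffer 50 mM Hepes pH 7.4, 1 mM CaCl2, 5 mM MgCl₂, 0.1% OA, 0.02% Tween20. 120 min, 25° C., shaking. Scintillation count; IC50 by one-site binding competition.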

Binder | IC50 [µM]
B1 | 0.0309

The binders below were run against T2, human calcitonin receptor (assay: SPA competition with 125I-calcitonin, membranes of BHK hCTR cells (Assay VII)).
Method: Membranes were prepared in the following way; the cells were rinsed with PBS and incubated with Versene for approximately 5 min before harvesting. The cells were flushed with PBS and the cell-suspension was centrifuged for 5 min at 1000 rpm. Cells were homogenized (Ultrathurrax) in a buffer containing 20 mM Na-HEPES and 10 mM EDTA (pH 7.4) and centrifuged at 20.000 rpm for 15 min. The resulting pellet was resuspended, homogenized and centrifuged (20.000 rpm, 15 min) in a buffer containing 20 mM Na-HEPES and 0.1 mM EDTA (pH 7.4, buffer 2). The resulting pellet was resuspended in buffer 2 and protein concentration was measured (BCA protein Assay, Pierce). The homogenate was kept cold during the whole procedure. The membranes were kept at −80° C. until use. Assay was performed in a 384 well Optiplate (PerkinElmer) in a total volume of 40 ul. Membranes were mixed with SPA beads. Final concentration of membranes 35 ng/μL final and Final concentration of SPA beads was 0.05 mg/well. Test-compounds were dissolved in DMSO and further diluted in assay buffer (50 mM Hepes, pH 7.4, 1 mM CaCl2, 5 mM MgCl₂, 0.1% OA and 0.02% Tween20). […] The final mixture was incubated for 120 min with shaking at 400 rpm at 25° C. prior to centrifugation (1500 rpm, 10 min). Samples were analyzed on TopCounter™ (Packard). The […] was calculated using (one site binding competition analysis) GraphPad Prism5 as a measure of receptor affinity.

Binder | IC50 [µM]
B2 | 0.0155
B3 | 0.0204
B4 | 0.0193
B5 | 0.0218
B6 | 0.0171
B7 | 0.0734
B8 | 0.0125
B9 | 0.0216
B10 | 0.0434
